Results as given in patent US20200010567A1 (NEURIMMUNE, published 2020).

What was measured:
[1] = molecular target: T1, BSA-coupled (GP)15 DPR protein peptide (bovine, conjugated via a bifunctional linker (SMCC) to bovine serum albumin); test: Western blot, BSA-coupled peptide
T1 construct: also called BSA-(GP)15
Description: (§1) Resolved proteins were then electroblotted (Novex® Semi-Dry Blotter, 1 h, 25V) on methanol-activated PVDF membranes (Immobilon®-P Transfer Membrane, Merck & Cie, Schaffhausen, Switzerland) by the use of Novex® NuPAGE® transfer buffer 2× (Life Technologies Europe B.V., Zug, Switzerland). Non-specific binding sites were blocked overnight at 4° C. (or alternatively for 1 h at room temperature) with PBS/0.1% Tween®-20 containing 2% BSA (Sigma-Aldrich, Buchs, Switzerland) (PBST). […] Membranes were washed three times in PBST for 15 min at RT and then incubated with a donkey anti-human IgG Fcγ-specific antibody conjugated with HRP (1:20000 or 1:10000 dilution, Jackson ImmunoResearch Laboratories, Inc., West Grove, USA) for 1 h at room temperature. Antibody binding was determined by membrane development using ECL and ImageQuant 350 detection (GE Healthcare, Otelfingen, Switzerland).
(§2) The binding specificity of the human-derived antibodies to BSA-coupled C9orf72 dipeptide repeat proteins (GA)₁₅, (GP)₁₅, (GR)₁₅, (PA)₁₅ and (PR)₁₅ was determined by Western blot analysis.

[2] = molecular target: T2, BSA-coupled (PA)15 DPR protein peptide (bovine, UniProt P02769 25-607, conjugated via a bifunctional linker (SMCC) to bovine serum albumin); test: Western blot, BSA-coupled peptide
T2 construct: also called BSA-(PA)15
Description: as §1, §2

[3] = molecular target: T3, BSA-coupled (GA)15 DPR protein peptide (bovine, conjugated via a bifunctional linker (SMCC) to bovine serum albumin); test: indirect ELISA, BSA-coupled peptide coated, antibody titrated [also D00013 FIG. 3D]
T3 construct: also called BSA-(GA)15
Description: In brief, dipeptide repeat proteins were synthesized and purified by Schafer-N(Copenhagen, Denmark): (GA)₁₅: H-CHHHHHH(GA)₁₅-OH; (GP)₁₅: H-C(GP)₁₅-OH; (GR)₁₅: H-C(GR)₁₅-OH; (PA)₁₅: H-C(PA)₁₅-OH; (PR)₁₅: H—C(PR)₁₅-OH. DPR protein peptides were then conjugated via a bifunctional linker (SMCC) to bovine serum albumin (BSA). 96-well microplates (Corning Incorporated, Corning, USA) were coated with BSA-coupled or -uncoupled dipeptide repeat protein peptides at a concentration of either 5 μg/ml or 20 μg/ml in coating buffer (15 mM Na₂CO₃, 35 mM NaHCO₃, pH 9.42). Non-specific binding sites were blocked for 1 h at room temperature with PBS/0.1% Tween®-20 containing 2% BSA (Sigma-Aldrich, Buchs, Switzerland). Primary antibodies were diluted to the indicated concentrations and incubated 1 h at room temperature, followed by incubation with a donkey anti-human IgG Fcγ-specific antibody conjugated with HRP (Jackson ImmunoResearch Laboratories, Inc., West Grove, USA). Binding was determined by measurement of HRP activity in a standard colorimetric assay. EC₅₀ values were estimated by non-linear regression using GraphPad Prism software (San Diego, USA).

GA5: H-(GA)5HHHHHH-NH2 = molecular target: T4, GA5: H-(GA)5HHHHHH-NH2; test: indirect ELISA, His-tagged peptide coated at 50 ug/ml, antibody titrated [also D00025 FIG. 7G]
T4 peptide: H-GAGAGAGAGAHHHHHH-NH2
Description: (§3) In brief, dipeptide repeat proteins were synthesized and purified by Schafer-N (Copenhagen, Denmark): GA₂₀: H-(GA)₂₀HHHHHH-NH₂; GA₁₀: H-(GA)₁₀HHHHHH-NH₂; GA₆: H-(GA)₆HHHHHH-NH₂; GA₅: H-(GA)₅HHHHHH-NH₂; GA₄: H-(GA)₄HHHHHH-NH₂; GA₃: H-(GA)₃HHHHHH-NH₂; GA₂: H-(GA)₂HHHHHH-NH₂; GP₂₀: H-(GP)₂₀HHHHHH-NH₂; GP₁₀: H-(GP)₁₀HHHHHH-NH₂; GP₆: H-(GP)₆HHHHHH-NH₂; GP₅: H-(GP)₅HHHHHH-NH₂; GP₄: H-(GP)₄HHHHHH-NH₂; GP₃: H-(GP)₃HHHHHH-NH₂; GP₂: H-(GP)₂HHHHHH-NH₂. GR₂₀: H-(GR)₂₀HHHHHH-NH₂; GR₁₀: H-(GR)₁₀HHHHHH-NH₂; GR₆: H-(GR)₆HHHHHH-NH₂; GR₅: H-(GR)₅HHHHHH-NH₂; GR₄: H-(GR)₄HHHHHH-NH₂; GR₃: H-(GR)₃HHHHHH-NH₂; GR₂: H-(GR)₂HHHHHH-NH₂; PA₂₀: H-(PA)₂₀HHHHHH-NH₂; PA₁₀: H-(PA)₁₀HHHHHH-NH₂; PA₆: H-(PA)₆HHHHHH-NH₂; PA₅: H-(PA)₅HHHHHH-NH₂; PA₄: H-(PA)₄HHHHHH-NH₂; PA₃: H-(PA)₃HHHHHH-NH₂; PA₂: H-(PA)₂HHHHHH-NH₂; PR₂₀: H-(PR)₂₀HHHHHH-NH₂; PR₁₀: H-(PR)₁₀HHHHHH-NH₂; PR₆: H-(PR)₆HHHHHH-NH₂; PR₅: H-(PR)₅HHHHHH-NH₂; PR₄: H-(PR)₄HHHHHH-NH₂; PR₃: H-(PR)₃HHHHHH-NH₂; PR₂: H-(PR)₂HHHHHH-NH₂. 96-well microplates (Corning Incorporated, Corning, USA) were coated with dipeptide repeat protein peptides at a concentration of 50 μg/ml in coating buffer (15 mM Na₂CO₃, 35 mM NaHCO₃, pH 9.42). Non-specific binding sites were blocked for 1 h at room temperature with PBS/0.1% Tween®-20 containing 2% BSA (Sigma-Aldrich, Buchs, Switzerland). Primary antibodies were diluted to the indicated concentrations and incubated 1 h at room temperature, followed by incubation with a donkey anti-human IgG Fcγ-specific antibody conjugated with HRP (Jackson ImmunoResearch Laboratories, Inc., West Grove, USA). Binding was determined by measurement of HRP activity in a standard colorimetric assay. EC₅₀ values were estimated by non-linear regression using GraphPad Prism software (San Diego, USA).

GA4: H-(GA)4HHHHHH-NH2 = molecular target: T5, GA4: H-(GA)4HHHHHH-NH2; test: as above
T5 peptide: H-GAGAGAGAHHHHHH-NH2
Description: as §3

GA3: H-(GA)3HHHHHH-NH2 = molecular target: T6, GA3: H-(GA)3HHHHHH-NH2; test: as above
T6 peptide: H-GAGAGAHHHHHH-NH2
Description: as §3

GA2: H-(GA)2HHHHHH-NH2 = molecular target: T7, GA2: H-(GA)2HHHHHH-NH2; test: as above
T7 peptide: H-GAGAHHHHHH-NH2
Description: as §3

T3 sequence (P02769 25-607 limits assumed): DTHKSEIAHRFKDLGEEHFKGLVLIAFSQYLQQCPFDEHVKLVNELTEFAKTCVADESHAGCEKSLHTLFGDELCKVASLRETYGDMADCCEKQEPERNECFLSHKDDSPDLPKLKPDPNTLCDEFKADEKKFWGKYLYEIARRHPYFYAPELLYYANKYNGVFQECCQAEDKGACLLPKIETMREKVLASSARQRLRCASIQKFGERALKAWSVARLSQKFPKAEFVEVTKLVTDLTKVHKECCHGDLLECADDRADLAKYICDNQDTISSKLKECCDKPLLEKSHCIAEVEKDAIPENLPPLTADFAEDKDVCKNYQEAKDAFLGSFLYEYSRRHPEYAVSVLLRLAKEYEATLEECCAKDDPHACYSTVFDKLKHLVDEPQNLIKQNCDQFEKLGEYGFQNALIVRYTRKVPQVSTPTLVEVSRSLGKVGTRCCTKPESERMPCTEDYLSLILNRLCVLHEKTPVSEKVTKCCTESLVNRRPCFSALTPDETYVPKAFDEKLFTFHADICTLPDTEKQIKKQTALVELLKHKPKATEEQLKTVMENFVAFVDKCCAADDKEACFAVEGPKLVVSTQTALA
T2 sequence (peptide, as listed by the source limits assumed, chain 1 of 2): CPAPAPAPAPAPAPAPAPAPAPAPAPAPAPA
T2 sequence (P02769 25-607 limits assumed, chain 2 of 2): as the sequence (P02769 25-607 limits assumed) above
T1 sequence (peptide, as listed by the source limits assumed, chain 1 of 2): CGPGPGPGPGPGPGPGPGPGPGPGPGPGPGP
T1 sequence (P02769 25-607 limits assumed, chain 2 of 2): as the sequence (P02769 25-607 limits assumed) above

B1: NI-308.6B11 (antibody, V domains shown)
VH: EVQLVQSGAEVKRPGASVKVSCKVSGYTLTELSMHWVRQAPGKGLEWMGGFDPEDGETVYAQKFQGRVTMTEDTSTDTAYMELSSLRSEDTALYHCATYGSSWHWNEGNEGSYYFDYWGQGTLVTVSS
VL: CDIQMTQSPSSLSASVGDRVTITCQASQDISIYLNWYQQKPGKAPKLLIYDASNLETGVPSRFSGSGSGTDFTFTISGLQPEDVARYYCQQYDDLPITFGQGTRLEIK
notes: Recombinant complete human IgG1, kappa
B1: no binding (tested: 10 nM or 100 nM) [1]; no binding (tested: 10 nM or 100 nM) [2].

B2: NI-308.28G1 (antibody, V domains shown)
VH: QVQLQESGPRLVKPSETLSLTCTVAGGSVNSYYWTWIQQSPGKGLEWLGRIYIAGRTNYNPSLTSRIALSVDTSRNQLSLKLTSVTAADTAIYYCARWGAESGDYYYGVDVWGPGTLVTVSS
VL: EIVMTQSPLSLPVTPGEPASISCKSSEGLLHSNGYTYLDWYLQKPGQAPQLLIFLASNRAAGVPDRFSGSGSGTDFTLKISRVEAEDVGVYYCMQAIQSPWTFGPGTKVEIK
notes: as for B1
B2 showed an EC50 [3] of 660 pM.

B3: NI-308.18F7 (antibody, V domains shown)
VH: QVQLQESGPGLVKPSETLSVTCTVSGGSINDYYWNWIRQPAGKGLEWIGRIYASGTINYNPSLQSRVTMSIDTSKNQFSLDLISVSAADTAVYYCARWGQVVGDYYYGMDVWGQGTTVTVSS
VL: EIVLTQSPLSLSVTPGEPASISCKSSQSLQHTNGYNYLDWYLLKPGQSPQLLIFLTSNRASGVPDRFSGSGSGTNFTLKISRVEAEDVGVYYCMEGIQLWTFGQGTKLEIK
notes: as for B1
B3: no binding (tested: about 4x10^5 pM (last point)) (GA5: H-(GA)5HHHHHH-NH2); no binding (tested: about 4x10^5 pM (last point)) (GA4: H-(GA)4HHHHHH-NH2); no binding (tested: about 4x10^5 pM (last point)) (GA3: H-(GA)3HHHHHH-NH2). B3: no binding (tested: about 4x10^5 pM (last point)) (GA2: H-(GA)2HHHHHH-NH2).
